Results from paper PMC5632315 (Biochemistry, 2016).
No end group written: not given here.

Target: human calmodulin (CaM) construct possessing an N-terminal His6 tag (human, UniProt P0DP23 1-149)
Assay: single-molecule TIRF microscopy

C(Alexa Fluor 555 maleimide)KKKKKRFSFKKSFKLSGFSFKKNKK [Human MARCKS PIP2 binding domain peptide (MARCKS residues 151-175) with an added N-terminal cysteine]: binds.
